Measurements taken from article PMC12432127, “Assessing the potential of bacterial signal peptides for radiopharmaceutical applications” (Scientific Reports, 2025).
Residues, ends and D or L forms follow the SMILES beside them. Groups on a side chain read outwards from the residue. No end group written: not given here. *: point of attachment. FITC = O=C1OC2(c3ccc(O)cc3Oc3cc(O)ccc32)c2ccc(NC(=S)*)cc21; DOTA = O=C(O)CN1CCN(CC(=O)O)CCN(CC(=O)*)CCN(CC(=O)O)CC1; Ahx = NCCCCCC(=O)O; For = O=C*

Legend:
[1] = Stability in human plasma (radio-HPLC); type: in vitro ADME
Protocol: The radiolabelled compound (50 µL) was added to male human AB plasma (500 µL, Sigma Aldrich, USA, male AB) and incubated at 37 °C. Samples of 100 µL were taken at selected time points. The plasma proteins were precipitated with acetonitrile (-20 °C) and the precipitate was centrifuged for 1 min at 1500 rpm. The supernatant was analyzed by analytical radio-HPLC.

in vivo = experiment: in vivo; parameters: species or system mice; conditions: male, NOD/SCID, mouse, iv, 250 pmol, total radioactivity
Protocol: (§1) All experiments involving animals were performed in accordance with an animal experimentation license approved by the Zurich Cantonal Veterinary Office, Switzerland (Jason P. Holland; license number ZH095/2023), and in compliance with the […] Animal Welfare Act. This study is reported in accordance with the ARRIVE guidelines (https://arriveguidelines.org). Six to eight-week old male NOD/SCID mice (17-20 g) were obtained from Charles River Laboratories (Lyon, France). Mice were provided with food and water ad libitum. For planar scintigraphy imaging and ex vivo biodistribution studies, mice were injected with 100 μL sterile saline formulations of ~ 250 pmol (~ 10 MBq) [^177Lu]Lu-[…] by intravenous tail-vein injection and anesthetized with isoflurane (2-4% in air). Imaging was performed on Gamma-eye scanner (Bioemtech, Greece) at 5 min and 1 h p.i. Directly after imaging at 1 h p.i., animals were euthanised by isoflurane asphyxiation followed by terminal exsanguination. A total of 13 tissues were removed, rinsed in water, dried in air for approx. 2 min., weighed and counted on a calibrated gamma counter for accumulation of activity. The mass of radiotracer formulation injected into each animal was measured and used to determine the total number of counts per minute (cpm) injected into each mouse by comparison to a standard syringe of known activity and mass.

[2] = parameters: species or system mice; conditions: mouse, in vivo, iv
Protocol: as §1

FPR1 = molecular target: T1, FPR1 (Homo sapiens, UniProt P21462); experiment: Cell internalization of radiotracer, FPR1 transfected HEK293T cells; type: cell-based; conditions: 1000-fold excess, all time points
T1 construct: expressed in transfected cells; host or cells: HEK293T (transient, jetPEI)
T1 sequence (P21462 1-350): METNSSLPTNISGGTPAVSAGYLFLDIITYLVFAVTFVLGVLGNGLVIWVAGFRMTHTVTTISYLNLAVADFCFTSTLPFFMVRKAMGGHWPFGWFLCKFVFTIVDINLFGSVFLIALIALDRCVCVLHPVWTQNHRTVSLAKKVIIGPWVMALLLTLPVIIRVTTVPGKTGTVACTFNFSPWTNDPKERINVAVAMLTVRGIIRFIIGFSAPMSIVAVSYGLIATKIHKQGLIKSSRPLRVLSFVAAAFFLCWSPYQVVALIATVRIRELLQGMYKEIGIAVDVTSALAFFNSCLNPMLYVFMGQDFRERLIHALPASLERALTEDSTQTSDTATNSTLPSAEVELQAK
Protocol: The medium was removed from the wells and replaced by fresh complete growth medium (1.3 mL per well). The inhibitor solution BOC-FLFLF (1000-fold excess against the radiotracer, in PBS/DMSO) was added to the wells in the bottom row (100 µL per well). A solution of PBS and DMSO in the same ratio as the inhibitor solution was added to the wells of the top row (100 µL per well). To each well, the radiotracer solution in the desired concentration was added (100 µL per well). The plate was incubated at 37 °C for the time specified for each experiment. The supernatant was removed, and the cells were placed on ice and rinsed twice with ice cold PBS (1 mL per well). Sodium hydroxide (1 M, 2 × 1 mL) was added to detach the cells and the suspension was collected in counting tubes. The tubes were analyzed with an HIDEX gamma counter (HIDEX, Turku, Finland) using the appropriate detection window for the corresponding radionuclide.

[3] = molecular target: T2, f-MVPIK(TAMRA)I bacterial signal peptide derivative; experiment: confocal fluorescence binding to transfected HEK293T cells
T2 chain: For-MVPIK(TAMRA)I

[4] = molecular target: T3, f-MVPIK(FITC)I bacterial signal peptide derivative; experiment: as above
T3 chain: For-MVPIK(FITC)I

Question: For CC[C@H](C)[C@H](NC(=O)[C@H](CCCCNC(=O)CCCCCNC(=O)CN1CCN(CC(=O)O)CCN(CC(=O)O)CCN(CC(=O)O)CC1)NC(=O)[C@@H](NC(=O)[C@@H]1CCCN1C(=O)[C@@H](NC(=O)[C@H](CCSC)NC=O)C(C)C)[C@@H](C)CC)C(=O)O [[^177Lu]Lu-f-MVPIK(Ahx-DOTA)I, metal not drawn] (For-MVPIK([Ahx-DOTA])I-OH), which “more hydrophilic fragment (partial degradation)” value [1] is on record?
Answer: 24%

Question: What about the “state of conjugate in human plasma” value [1] of the same molecule?
Answer: completely oxidized

Question: What about the tissue uptake at 1 h (in vivo; biodistribution blood) of the same molecule?
Answer: 0.12 ± 0.02 %ID/g

Question: What about the tissue uptake at 1 h (in vivo; biodistribution bone) of the same molecule?
Answer: 0.75 ± 0.13 %ID/g

Question: What about the tissue uptake at 1 h (in vivo; biodistribution heart) of the same molecule?
Answer: 0.09 ± 0.01 %ID/g

Question: And the tissue uptake at 1 h (in vivo; biodistribution lg intestine)?
Answer: 0.32 ± 0.12 %ID/g

Question: And the tissue uptake at 1 h (in vivo; biodistribution lungs)?
Answer: 0.79 ± 0.12 %ID/g

Question: What about the tissue uptake at 1 h (in vivo; biodistribution muscle) of the same molecule?
Answer: 0.18 ± 0.03 %ID/g

Question: What about the tissue uptake at 1 h (in vivo; biodistribution pancreas) of the same molecule?
Answer: 0.1 ± 0.02 %ID/g

Question: And the tissue uptake at 1 h (in vivo; biodistribution skin)?
Answer: 0.49 ± 0.08 %ID/g

Question: What about the tissue uptake at 1 h (in vivo; biodistribution sm intestine) of the same molecule?
Answer: 0.45 ± 0.09 %ID/g

Question: And the tissue uptake at 1 h (in vivo; biodistribution stomach)?
Answer: 0.17 ± 0.05 %ID/g

Question: And the tissue uptake at 1 h (in vivo; uptake kidneys)?
Answer: 3.35 ± 0.19 %ID/g

Question: What about the tissue uptake at 1 h (in vivo; uptake liver) of the same molecule?
Answer: 3.02 ± 0.23 %ID/g

Question: What about the tissue uptake at 1 h (in vivo; uptake spleen) of the same molecule?
Answer: 4.43 ± 0.38 %ID/g

Question: And the “location of administered activity in scintigraphy images” value [2]?
Answer: the majority of the administered activity was found in the bladder

Question: And the “residual activity in scintigraphy images” value [2]?
Answer: only minimal residual activity

Question: Which “effect of blocking agent on cell-bound activity of the radiotracer” value (FPR1) does the source give for BOC-FLFLF here?
Answer: considerably reduced the cell-bound activity

B1: FPR1 (protein)
chain: METNSSLPTNISGGTPAVSAGYLFLDIITYLVFAVTFVLGVLGNGLVIWVAGFRMTHTVTTISYLNLAVADFCFTSTLPFFMVRKAMGGHWPFGWFLCKFVFTIVDINLFGSVFLIALIALDRCVCVLHPVWTQNHRTVSLAKKVIIGPWVMALLLTLPVIIRVTTVPGKTGTVACTFNFSPWTNDPKERINVAVAMLTVRGIIRFIIGFSAPMSIVAVSYGLIATKIHKQGLIKSSRPLRVLSFVAAAFFLCWSPYQVVALIATVRIRELLQGMYKEIGIAVDVTSALAFFNSCLNPMLYVFMGQDFRERLIHALPASLERALTEDSTQTSDTATNSTLPSAEVELQAK
Question: Which Kd [3] does the source give for B1 here?
Answer: 3.8 nM

Question: And the Kd [4]?
Answer: 1.1 nM
